Laboratory results published in article PMC11893775.
Non-standard residues stand in square brackets, D forms with d. No end group written: not given here.

Experiments:
[1] = target: recombinant human furin lacking the trans-membrane domain and cytosolic tail (human) (UniProt P09958)
[2] = target: T1, recombinant kallikrein-8 (rKLK8) (UniProt O60259)
T1 sequence: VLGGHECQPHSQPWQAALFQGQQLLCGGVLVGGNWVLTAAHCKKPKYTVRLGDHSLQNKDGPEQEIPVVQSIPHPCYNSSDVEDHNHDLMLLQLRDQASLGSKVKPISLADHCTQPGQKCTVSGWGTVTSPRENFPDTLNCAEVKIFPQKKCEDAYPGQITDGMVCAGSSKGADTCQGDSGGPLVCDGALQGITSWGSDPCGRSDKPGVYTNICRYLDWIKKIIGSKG

UniProt P09958, sequence (P09958 108-715): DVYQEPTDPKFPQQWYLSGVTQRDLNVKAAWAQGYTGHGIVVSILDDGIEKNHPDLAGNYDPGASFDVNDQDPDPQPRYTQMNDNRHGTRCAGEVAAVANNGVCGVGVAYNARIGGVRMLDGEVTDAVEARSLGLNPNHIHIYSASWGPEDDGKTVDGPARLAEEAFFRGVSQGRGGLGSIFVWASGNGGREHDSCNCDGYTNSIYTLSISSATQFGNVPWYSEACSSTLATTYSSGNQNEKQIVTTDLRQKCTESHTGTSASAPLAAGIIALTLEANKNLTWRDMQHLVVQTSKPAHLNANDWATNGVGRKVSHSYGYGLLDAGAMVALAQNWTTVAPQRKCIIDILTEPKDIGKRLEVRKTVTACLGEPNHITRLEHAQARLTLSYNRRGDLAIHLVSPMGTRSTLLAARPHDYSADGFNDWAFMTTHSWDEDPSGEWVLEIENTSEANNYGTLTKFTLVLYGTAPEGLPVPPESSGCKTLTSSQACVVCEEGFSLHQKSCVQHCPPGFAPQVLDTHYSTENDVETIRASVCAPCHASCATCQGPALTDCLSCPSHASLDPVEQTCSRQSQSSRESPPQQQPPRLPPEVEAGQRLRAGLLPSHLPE

B1: hexa-D-arginine (peptide)
peptide: [dR][dR][dR][dR][dR][dR]
[1]
  IC50 of D6R for inhibition of the in vitro cleavage of the fluorogenic substrate Boc-RVRR-AMC by rFurin: 780 nM
[2]
  IC50 of D6R for inhibition of the in vitro cleavage of the fluorogenic substrate Boc-VPR-AMC by rKLK8: < 25000 nM
